{"source": "paper PMC4862333", "about": "(The Journal of Cell Biology, 2016)", "key": {"native gel or EMSA": {"target": "the molecule itself", "assay": "native gel or EMSA"}, "[1]": {"target": "the molecule itself", "assay": "in vitro oligomerization assay"}}}
{"protein": "His-Sumo-tagged Cab45 (recombinant) (natural protein, human, UniProt Q9BRK5 37-362, looked up) RPANHSSTRERVANREENEILPPDHLNGVKLEMDGHLNRGFHQEVFLGKDLGGFDEDAEPRRSRRKLMVIFSKVDVNTDRKISAKEMQRWIMEKTAEHFQEAMEESKTHFRAVDPDGDGHVSWDEYKVKFLASKGHSEKEVADAIRLNEELKVDEETQEVLENLKDRWYQADSPPADLLLTEEEFLSFLHPEHSRGMLRFMVKEIVRDLDQDGDKQLSVPEFISLPVGTVENQQGQDIDDNWVKDRKKEFEELIDSNHDGIVTAEELESYMDPMNEYNALNEAKQMIAVADENQNHHLEPEEVLKYSEFFTGSKLVDYARSVHEEF", "values": [{"measurement": "binding result", "setting": "native gel or EMSA", "result": "binds"}]}
{"protein": "ATTO488-labeled recombinant Cab45 (natural protein, human, UniProt Q9BRK5 37-362, looked up, ATTO488 (NHS-ATTO488 label)) RPANHSSTRERVANREENEILPPDHLNGVKLEMDGHLNRGFHQEVFLGKDLGGFDEDAEPRRSRRKLMVIFSKVDVNTDRKISAKEMQRWIMEKTAEHFQEAMEESKTHFRAVDPDGDGHVSWDEYKVKFLASKGHSEKEVADAIRLNEELKVDEETQEVLENLKDRWYQADSPPADLLLTEEEFLSFLHPEHSRGMLRFMVKEIVRDLDQDGDKQLSVPEFISLPVGTVENQQGQDIDDNWVKDRKKEFEELIDSNHDGIVTAEELESYMDPMNEYNALNEAKQMIAVADENQNHHLEPEEVLKYSEFFTGSKLVDYARSVHEEF", "values": [{"measurement": "binding result", "setting": "[1]", "result": "binds"}]}
